Source: paper PMC8140157, “RTEL1 influences the abundance and localization of TERRA RNA” (Nature Communications, 2020)

How the values were obtained:
RTEL1∆762R1264H [1] = target: T1, RTEL1∆762R1264H (human, UniProt Q9NZ71-6 762-1300, R1264H); assay: competition (fluorescence anisotropy); vs FAM-TERRA-MUT, 200 nM; 20 mM Tris pH 7.5, 50 mM KCl, 0.5 mM TCEP, 0.5 mM MgCl2, 10% glycerol, 0.1% IGEPAL, room temperature 30 min; oligos refolded in 10 mM Tris pH 7.5, 100 mM KCl; EMSA legends give 150 or 300 mM KCl; conditions: protein: recombinant, tags: 6xHis
T1 sequence: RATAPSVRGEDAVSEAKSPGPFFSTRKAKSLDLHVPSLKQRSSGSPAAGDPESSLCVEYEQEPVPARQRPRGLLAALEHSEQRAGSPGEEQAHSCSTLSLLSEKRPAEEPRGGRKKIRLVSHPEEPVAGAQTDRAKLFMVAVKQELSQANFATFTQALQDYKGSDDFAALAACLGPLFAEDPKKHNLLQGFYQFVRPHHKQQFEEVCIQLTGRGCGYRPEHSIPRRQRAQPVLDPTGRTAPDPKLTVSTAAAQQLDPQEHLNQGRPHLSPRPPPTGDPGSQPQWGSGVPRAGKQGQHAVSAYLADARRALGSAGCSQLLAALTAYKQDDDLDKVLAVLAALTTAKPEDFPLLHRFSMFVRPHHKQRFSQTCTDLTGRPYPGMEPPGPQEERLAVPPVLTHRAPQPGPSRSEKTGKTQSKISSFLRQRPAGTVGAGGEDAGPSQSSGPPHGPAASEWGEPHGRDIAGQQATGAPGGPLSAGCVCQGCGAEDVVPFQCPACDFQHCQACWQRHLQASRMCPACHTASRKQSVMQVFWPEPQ

RTEL1∆762-1097 [2] = target: T2, RTEL1∆762-1097 (human, UniProt Q9NZ71-6 762-1097); assay: as above; conditions: protein: recombinant, tags: 6xHis
T2 sequence: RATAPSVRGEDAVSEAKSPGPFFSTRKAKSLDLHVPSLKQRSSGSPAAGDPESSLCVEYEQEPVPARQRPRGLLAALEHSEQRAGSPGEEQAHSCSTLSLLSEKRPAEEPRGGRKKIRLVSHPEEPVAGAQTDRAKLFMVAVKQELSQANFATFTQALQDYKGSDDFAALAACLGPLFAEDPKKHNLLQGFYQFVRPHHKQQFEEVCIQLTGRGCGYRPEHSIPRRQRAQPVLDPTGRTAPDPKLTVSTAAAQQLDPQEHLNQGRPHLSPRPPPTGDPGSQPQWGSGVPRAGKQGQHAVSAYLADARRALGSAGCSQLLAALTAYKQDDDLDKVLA

RTEL1∆762 [3] = target: T3, RTEL1∆762 (human, UniProt Q9NZ71-6 762-1300); assay: as above; conditions: protein: recombinant, tags: 6xHis, chain copies: 2
T3 sequence: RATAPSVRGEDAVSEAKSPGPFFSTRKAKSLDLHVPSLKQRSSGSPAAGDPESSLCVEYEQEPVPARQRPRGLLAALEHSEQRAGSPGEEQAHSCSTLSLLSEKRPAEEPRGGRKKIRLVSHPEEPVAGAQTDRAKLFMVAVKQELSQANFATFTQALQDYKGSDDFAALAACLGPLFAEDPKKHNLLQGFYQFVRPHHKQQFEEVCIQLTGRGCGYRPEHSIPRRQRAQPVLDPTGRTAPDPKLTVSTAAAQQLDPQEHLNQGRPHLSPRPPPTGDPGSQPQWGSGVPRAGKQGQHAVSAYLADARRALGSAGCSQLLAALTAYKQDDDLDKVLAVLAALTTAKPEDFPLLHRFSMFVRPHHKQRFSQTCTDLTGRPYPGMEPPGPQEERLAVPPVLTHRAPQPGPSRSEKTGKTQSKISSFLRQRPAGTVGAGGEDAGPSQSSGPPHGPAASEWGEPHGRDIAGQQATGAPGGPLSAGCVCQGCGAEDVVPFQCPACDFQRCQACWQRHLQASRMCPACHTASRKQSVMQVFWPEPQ

RTEL1∆762R1264H [4] = target: T1, RTEL1∆762R1264H; assay: competition (fluorescence anisotropy); vs FAM-TERRA-MUT, 1 uM; 20 mM Tris pH 7.5, 50 mM KCl, 0.5 mM TCEP, 0.5 mM MgCl2, 10% glycerol, 0.1% IGEPAL, room temperature 30 min; oligos refolded in 10 mM Tris pH 7.5, 100 mM KCl; EMSA legends give 150 or 300 mM KCl; conditions: protein: recombinant, tags: 6xHis
RTEL1∆762-1097 [5] = target: T2, RTEL1∆762-1097; assay: as above; conditions: protein: recombinant, tags: 6xHis
RTEL1∆762 [6] = target: T3, RTEL1∆762; assay: as above; conditions: protein: recombinant, tags: 6xHis, chain copies: 2
[7] = target: the molecule itself; assay: SEC-MALS; 200-300 µg protein on Superdex 200 10/300 GL, 0.3 ml per minute, 50 mM Hepes pH 7.5, 1 mM TCEP, 150 or 300 mM NaCl; dimer to monomers
RTEL1∆762 [8] = target: T3, RTEL1∆762; assay: fluorescence anisotropy; RNA folded in 100 mM KCl; 20 mM Tris pH 7.5, 50 mM KCl, 0.5 mM TCEP, 0.5 mM MgCl2, 10% glycerol, 0.1% IGEPAL, room temperature 30 min; oligos refolded in 10 mM Tris pH 7.5, 100 mM KCl; EMSA legends give 150 or 300 mM KCl; conditions: protein: recombinant; tags: 6xHis; chain copies: 2; label: 5' fluorescein; no G4
RTEL1∆762 [9] = target: T3, RTEL1∆762; assay: competition (fluorescence anisotropy); vs FAM-TERRA-MUT, 200 nM; error in main text misprinted as 0.74 nM; 20 mM Tris pH 7.5, 50 mM KCl, 0.5 mM TCEP, 0.5 mM MgCl2, 10% glycerol, 0.1% IGEPAL, room temperature 30 min; oligos refolded in 10 mM Tris pH 7.5, 100 mM KCl; EMSA legends give 150 or 300 mM KCl; conditions: protein: recombinant; tags: 6xHis; chain copies: 2; no G4
RTEL1∆762 [10] = target: T3, RTEL1∆762; assay: fluorescence anisotropy; RNA folded in 0 mM KCl; 20 mM Tris pH 7.5, 50 mM KCl, 0.5 mM TCEP, 0.5 mM MgCl2, 10% glycerol, 0.1% IGEPAL, room temperature 30 min; oligos refolded in 10 mM Tris pH 7.5, 100 mM KCl; EMSA legends give 150 or 300 mM KCl; conditions: protein: recombinant; tags: 6xHis; chain copies: 2; label: 5' fluorescein; no G4 (folded without KCl)
RTEL1∆762 [11] = target: T3, RTEL1∆762; assay: fluorescence anisotropy; RNA folded in 100 mM KCl; text: <10 nM, at detection limit; 20 mM Tris pH 7.5, 50 mM KCl, 0.5 mM TCEP, 0.5 mM MgCl2, 10% glycerol, 0.1% IGEPAL, room temperature 30 min; oligos refolded in 10 mM Tris pH 7.5, 100 mM KCl; EMSA legends give 150 or 300 mM KCl; conditions: protein: recombinant; tags: 6xHis; chain copies: 2; label: 5' fluorescein; G4
RTEL1∆1143 = target: T4, RTEL1∆1143 (human, UniProt Q9NZ71-6 1143-1300); assay: EMSA; negligible at 5 uM protein; 150 mM KCl; 20 mM Tris pH 7.5, 50 mM KCl, 0.5 mM TCEP, 0.5 mM MgCl2, 10% glycerol, 0.1% IGEPAL, room temperature 30 min; oligos refolded in 10 mM Tris pH 7.5, 100 mM KCl; EMSA legends give 150 or 300 mM KCl; conditions: protein: recombinant; tags: 6xHis; label: 5' fluorescein; G4
T4 sequence: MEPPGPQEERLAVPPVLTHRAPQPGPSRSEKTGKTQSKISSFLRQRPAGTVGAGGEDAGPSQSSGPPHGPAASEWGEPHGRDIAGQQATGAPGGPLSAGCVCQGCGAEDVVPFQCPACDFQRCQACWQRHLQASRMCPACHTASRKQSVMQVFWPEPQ

RTEL1∆762 [12] = target: T3, RTEL1∆762; assay: fluorescence anisotropy; 20 mM Tris pH 7.5, 50 mM KCl, 0.5 mM TCEP, 0.5 mM MgCl2, 10% glycerol, 0.1% IGEPAL, room temperature 30 min; oligos refolded in 10 mM Tris pH 7.5, 100 mM KCl; EMSA legends give 150 or 300 mM KCl; conditions: protein: recombinant, tags: 6xHis, chain copies: 2, label: 5' fluorescein

In the case of UUAGGGUUAGGGUUAGGGUUAGGG (structured_RNA) [TERRA competitor], the Ki (RTEL1∆762R1264H [1]; G4) is reported as 30 ± 7 nM, the Ki (RTEL1∆762-1097 [2]; G4) is reported as 245 ± 35 nM and the Ki (RTEL1∆762 [3]; G4) is reported as 17 ± 3 nM. For the same binder, the Ki (RTEL1∆762R1264H [4]; G4) was 107 ± 14 nM, the Ki (RTEL1∆762-1097 [5]; G4) was 978 ± 84 nM and the Ki (RTEL1∆762 [6]; G4) was 29 ± 4 nM.

Binder GGTTACCGTTACCGTTACCGTTACCGTTAG (ssDNA) [hTelo-MUT] has a Ki (RTEL1∆762R1264H [1]; no G4) of 309 ± 68 nM, a Ki (RTEL1∆762-1097 [2]; no G4) of 826 ± 134 nM and a Ki (RTEL1∆762 [3]; no G4) of 93 ± 11 nM. It also gave a Ki (RTEL1∆762R1264H [4]; no G4) of 1750 ± 520 nM, a Ki (RTEL1∆762-1097 [5]; no G4) of 12600 ± 8470 nM and a Ki (RTEL1∆762 [6]; no G4) of 420 ± 140 nM.

B1: RTEL1^∆762 (human RTEL1 residues 762-1300, lacks the helicase domain) (domain or fragment, UniProt Q9NZ71-6 762-1300, looked up)
chain: RATAPSVRGEDAVSEAKSPGPFFSTRKAKSLDLHVPSLKQRSSGSPAAGDPESSLCVEYEQEPVPARQRPRGLLAALEHSEQRAGSPGEEQAHSCSTLSLLSEKRPAEEPRGGRKKIRLVSHPEEPVAGAQTDRAKLFMVAVKQELSQANFATFTQALQDYKGSDDFAALAACLGPLFAEDPKKHNLLQGFYQFVRPHHKQQFEEVCIQLTGRGCGYRPEHSIPRRQRAQPVLDPTGRTAPDPKLTVSTAAAQQLDPQEHLNQGRPHLSPRPPPTGDPGSQPQWGSGVPRAGKQGQHAVSAYLADARRALGSAGCSQLLAALTAYKQDDDLDKVLAVLAALTTAKPEDFPLLHRFSMFVRPHHKQRFSQTCTDLTGRPYPGMEPPGPQEERLAVPPVLTHRAPQPGPSRSEKTGKTQSKISSFLRQRPAGTVGAGGEDAGPSQSSGPPHGPAASEWGEPHGRDIAGQQATGAPGGPLSAGCVCQGCGAEDVVPFQCPACDFQRCQACWQRHLQASRMCPACHTASRKQSVMQVFWPEPQ
notes: residue numbers run to 1300; Cloned between EcoRI and XhoI of pET28; expected monomer mass printed as 62 kDa; source: E. coli BL21, purified (His-trap, Hi-Trap Q, Superdex 200)
In the case of B1, the “stoichiometry N” value [7] is reported as 2.

Binder UUACCGUUACCGUUACCGUUACCG (ssRNA) [TERRA-MUT (FAM)] has a Kd (RTEL1∆762 [8]) of 108 ± 21.6 nM.

UUACCGUUACCGUUACCGUUACCG (ssRNA) [TERRA-MUT competitor] gave a Ki (RTEL1∆762 [9]) of 442 ± 74 nM, a Ki (RTEL1∆762R1264H [1]; no G4) of 850 ± 125 nM and a Ki (RTEL1∆762-1097 [2]; no G4) of 1650 ± 377 nM. It also gave a Ki (RTEL1∆762R1264H [4]; no G4) of 3810 ± 1450 nM, a Ki (RTEL1∆762-1097 [5]; no G4) of 16100 ± 15000 nM and a Ki (RTEL1∆762 [6]; no G4) of 1450 ± 73 nM.

With UUAGGGUUAGGGUUAGGGUUAGGG (ssRNA) [TERRA (FAM), not folded (0 mM KCl)] the Kd (RTEL1∆762 [10]) was 37.1 ± 9.6 nM.

GGTTAGGGTTAGGGTTAGGGTTAGGGTTAG (structured_DNA) [hTelo] gave a Ki (RTEL1∆762R1264H [1]; G4) of 47 ± 9 nM, a Ki (RTEL1∆762-1097 [2]; G4) of 276 ± 39 nM and a Ki (RTEL1∆762 [3]; G4) of 29 ± 4 nM. The Ki (RTEL1∆762R1264H [4]; G4) was 212 ± 17 nM, the Ki (RTEL1∆762-1097 [5]; G4) was 1720 ± 302 nM and the Ki (RTEL1∆762 [6]; G4) was 74 ± 12 nM.

UUAGGGUUAGGGUUAGGGUUAGGG (structured_RNA) [TERRA (FAM), folded in KCl] was tested, and the Kd (RTEL1∆762 [11]) was 1.3 ± 3.6 nM and the binding result (RTEL1∆1143) was “no binding”.

Work on AAAAAAAAAAAAAAAAAAAAAAAA (ssRNA) [Poly A 24mer] yielded a Kd (RTEL1∆762 [12]) of 498 ± 47.8 nM.

With AUUAUUAUUAUUAUUAUUAUUAUU (ssRNA) [AU-rich 24mer] the Kd (RTEL1∆762 [12]; unstructured) was 42 ± 6.1 nM.
